Source: article PMC10954734, “Structure of antiviral drug bulevirtide bound to hepatitis B and D virus receptor protein NTCP” (Nature Communications, 2024)

Target: T1, complex of detergent-solubilized, biotinylated NTCP and BLV (Homo sapiens NTCP; bulevirtide from …)
T1 construct: also called NTCP-BLV complex; source: BLV: provided peptide; not shown: Avi-tag, C-terminal, kept; eYFP, C-terminal, cleaved; rho-1D4, C-terminal, cleaved
Assay: ELISA; multipoint ELISA at 4 C; 40 nM biotinylated NTCP immobilised on a neutravidin-coated plate in the presence of BLV, serial dilutions of purified Fab for 20 min, detection with HRP-conjugated protein L; EC50 from a sigmoidal dose-response fit; apparent
Conditions: both partners purified

B1: Fab3 (Fab, V domains shown)
VH: EVQLVESGGGLVQPGGSLRLSCAASGFNVSSSYIHWVRQAPGKGLEWVASISPYYSYTSYADSVKGRFTISADTSKNTAYLQMNSLRAEDTAVYYCARYQYDYYYSYYAGLDYWGQGTLVTVSS
VL: DIQMTQSPSSLSASVGDRVTITCRASQSVSSAVAWYQQKPGKAPKLLIYSASSLYSGVPSRFSGSRSGTDFTLTISSLQPEDFATYYCQQYRYSLITFGQGTKVEIK
notes: also called Fab specific to the NTCP-BLV complex
**Q.** With B1 as the binder, how does the Kd read?
**A.** 8 nM
